Source: patent US20210253718A1, “FRIZZLED5 PROTEIN-BINDING AGENTS” (Modmab Therapeutics Corporation, priority 2016, published 2021)
Residue numbers refer to the chain shown, from its start.

T1: FZD8 CRD (Homo sapiens, UniProt Q9H461)
T1 construct: K31-D155; GPI anchor signal (C); expressed in transfected cells; host or cells: CHO cells, lentiviral pLenti-puro
T1 sequence (Q9H461 31-155): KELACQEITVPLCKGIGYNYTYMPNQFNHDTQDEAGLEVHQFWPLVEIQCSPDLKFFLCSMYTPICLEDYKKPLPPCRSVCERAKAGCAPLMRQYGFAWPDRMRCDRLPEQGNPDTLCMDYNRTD

T2: FZD3 CRD (Homo sapiens, UniProt Q9NPG1)
T2 construct: CRD of FZD1, FZD2, FZD3, FZD4, FZD5, FZD6, FZD7, FZD8, FZD9 or FZD10; GPI anchor signal (C); expressed in transfected cells; host or cells: CHO cells, lentiviral pLenti-puro
T2 sequence (Q9NPG1 23-136 limits assumed): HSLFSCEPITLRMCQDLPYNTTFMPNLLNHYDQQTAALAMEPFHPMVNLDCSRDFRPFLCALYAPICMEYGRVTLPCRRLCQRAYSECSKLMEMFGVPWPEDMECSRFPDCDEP

B1: Fab-2907: anti-FZD5 Fab with antibody variable region Fv-2907; CDR SEQ ID NOs: 35, 36, 46, 85, 122, 159 (antibody, V domains shown)
VH: EVQLVESGGGLVQPGGSLRLSCAASGFNIYSSYMHWVRQAPGKGLEWVASISSYSGSTYYADSVKGRFTISADTSKNTAYLQMNSLRAEDTAVYYCARSSWGAYIVSYGFDYWGQGTLVTVSS
VL: DIQMTQSPSSLSASVGDRVTITCRASQSVSSAVAWYQQKPGKAPKLLIYSASSLYSGVPSRFSGSRSGTDFTLTISSLQPEDFATYYCQQVGYWWGLITFGQGTKVEIK
B2: Fab-2925: anti-FZD5 Fab with antibody variable region Fv-2925; CDR SEQ ID NOs: 35, 36, 64, 102, 140, 172 (antibody, V domains shown)
VH: EVQLVESGGGLVQPGGSLRLSCAASGFNLSYSSMHWVRQAPGKGLEWVASIYPSYGSTYYADSVKGRFTISADTSKNTAYLQMNSLRAEDTAVYYCARYGYFGLDYWGQGTLVTVSS
VL: B1 VL with V91A, G92W, Y93V, W94Y, W95A, G96S, I98F
B3: Fab-2928: anti-FZD5 Fab with antibody variable region Fv-2928; CDR SEQ ID NOs: 35, 36, 67, 105, 143, 175 (antibody, V domains shown)
VH: EVQLVESGGGLVQPGGSLRLSCAASGFNISYSSIHWVRQAPGKGLEWVASIYPSYSSTYYADSVKGRFTISADTSKNTAYLQMNSLRAEDTAVYYCARYYAMDYWGQGTLVTVSS
VL: DIQMTQSPSSLSASVGDRVTITCRASQSVSSAVAWYQQKPGKAPKLLIYSASSLYSGVPSRFSGSRSGTDFTLTISSLQPEDFATYYCQQAFYYPITFGQGTKVEIK

target: T1, FZD8 CRD; experiment: Immunofluorescence of anti-FZD5 Fab binding to CHO cells overexpressing Frizzled CRD; parameters: key: −: no binding; +: very weak binder; ++: weak binder; +++: good binder; ++++: very good binder; conditions: not given
Method in brief: (§1)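 Specificity of anti-FZD5 Fabs was tested on CHO cells displaying membrane-anchored Frizzled CRDs (myc-tagged, GPI-linked), one family member per line. Detection was by immunofluorescence.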

| Molecule | Immunofluorescence binding, Frizzled CRD overexpressed on CHO cells: FZD8 |
| --- | --- |
| B1 | + |
| B2 | − |
| B3 | − |

target: T3, FZD7 CRD (Homo sapiens, UniProt O75084); experiment: as above; parameters: key: −: no binding; +: very weak binder; ++: weak binder; +++: good binder; ++++: very good binder; conditions: not given
T3 construct: D45-S169; GPI anchor signal (C); expressed in transfected cells; host or cells: CHO cells, lentiviral pLenti-puro
Method in brief: as §1

| Molecule | Immunofluorescence binding, Frizzled CRD overexpressed on CHO cells: FZD7 |
| --- | --- |
| B1 | + |
| B2 | ++ |
| B3 | − |

target: T4, FZD1 CRD (Homo sapiens, UniProt Q9UP38); experiment: as above; parameters: key: −: no binding; +: very weak binder; ++: weak binder; +++: good binder; ++++: very good binder; conditions: not given
T4 construct: D112-P238; GPI anchor signal (C); expressed in transfected cells; host or cells: CHO cells, lentiviral pLenti-puro
Method in brief: as §1

| Molecule | Immunofluorescence binding, Frizzled CRD overexpressed on CHO cells: FZD1 |
| --- | --- |
| B1 | − |
| B2 | ++ |
| B3 | − |

target: T2, FZD3 CRD; experiment: as above; parameters: key: −: no binding; +: very weak binder; ++: weak binder; +++: good binder; ++++: very good binder; conditions: not given
Method in brief: as §1

| Molecule | Immunofluorescence binding, Frizzled CRD overexpressed on CHO cells: FZD3 |
| --- | --- |
| B1 | − |
| B2 | − |
| B3 | − |

tested on: PATU8988S cells; experiment: Effect of anti-FZD5 Fabs on proliferation of pancreatic cancer cell lines (percent growth inhibition); type: cell-based, human; conditions: Fab 10 μg/ml
Method: (§2) The effect of presently disclosed anti-FZD5 Fabs on proliferation of RNF43 loss-of-function mutant pancreatic cancer cell lines HPAFII, PATU8988S and ASPC-1; and on pancreatic cancer cell line RWP1, was tested at […] and 10 μg/ml.

| Molecule | percent growth inhibition, PATU8988s 10 μg/ml |
| --- | --- |
| B1 | −42.69% |
| B2 | −22.86% |
| B3 | −30.22% |

tested on: ASPC-1 cells; experiment: as above; type: cell-based, human; conditions: Fab 10 μg/ml
Method: as §2

| Molecule | percent growth inhibition, ASPC-1 10 μg/ml |
| --- | --- |
| B1 | 23.78% |
| B2 | −3.44% |
| B3 | 6.27% |

tested on: HPAFII cells; experiment: as above; type: cell-based, human; conditions: Fab 2 μg/ml
Method: as §2

| Molecule | percent growth inhibition, HPAFII 2 μg/ml |
| --- | --- |
| B1 | 15.15% |
| B2 | −11.24% |
| B3 | −17.90% |

same assay, conditions: Fab 10 μg/ml

| Molecule | percent growth inhibition, HPAFII 10 μg/ml |
| --- | --- |
| B1 | 14.20% |
| B2 | −17.38% |
| B3 | −25.51% |

tested on: RWP1 cells; experiment: as above; type: cell-based, human; conditions: Fab 10 μg/ml
Method: as §2

| Molecule | percent growth inhibition, RWP1 10 μg/ml |
| --- | --- |
| B1 | 28.57% |
| B2 | 33.53% |
| B3 | 32.47% |

target: T1, FZD8 CRD; experiment: Flow cytometry of anti-FZD5 Fab binding to CHO cells overexpressing Frizzled CRD; conditions: not given
Method in brief: (§3)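 CHO lines each expressing a different human Frizzled CRD, myc-tagged and GPI-anchored at the surface, stained with 200 nM Fab, then Alexa Fluor 488 F(ab′)2 secondary. Dead cells excluded by viability dye; anti-c-Myc staining served as expression control. Binding read by flow cytometry.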

| Molecule | Median fluorescence, Frizzled CRD overexpressed on CHO cells: FZD8 |
| --- | --- |
| B1 | 11.76 |
| B2 | 7.70 |
| B3 | 7.57 |

target: T5, FZD2 CRD (Homo sapiens, UniProt Q14332); experiment: as above; conditions: not given
T5 construct: D35-P161; GPI anchor signal (C); expressed in transfected cells; host or cells: CHO cells, lentiviral pLenti-puro
Method in brief: as §3

| Molecule | Median fluorescence, Frizzled CRD overexpressed on CHO cells: FZD2 |
| --- | --- |
| B1 | 4.07 |
| B2 | 10.65 |
| B3 | 14.59 |

target: T4, FZD1 CRD; experiment: as above; conditions: not given
Method in brief: as §3

| Molecule | Median fluorescence, Frizzled CRD overexpressed on CHO cells: FZD1 |
| --- | --- |
| B1 | 3.28 |
| B2 | 19.46 |
| B3 | 18.43 |
